Measurements as given in US20240216517A1 (CELLEMEDY, published 2024).

Biological target: T1, human transferrin receptor-Fc tag standard (human, UniProt P02786 89-760)
T1 construct: This is a bought standard coated on the ELISA plate; also called hTfR; not shown: Fc tag
Test: ELISA, human transferrin receptor-Fc coated on the plate; Kd calculated from an expected saturation point, curve not saturated at 10000 nM
Experimental: Then, it was washed 3 times with 200 μl of PBST (PBS+Tween0.05%). An antibody (mouse anti-His tag antibody, Hisprobe) that specifically binds to the hexa-His tag was diluted 1/1000 in PBST, and the diluted solution was treated by 100 μl at room temperature for 1 hour.
Then, it was washed 3 times with 200 μl of PBST (PBS+Tween0.05%). TMB solution expressing coloration by reacting with HRP was treated by 100 μl at room temperature for 15 minutes. After 50 μl of 1M H₂SO₄ solution was treated, optical density was measured with TECAN at a wavelength of 450 nm. This was calculated using the Langmuir equation (Table 5, FIGS. 8 to 10).
FIG. 11 illustrates results of evaluation/comparison of the binding force of huHF_mutant1-dual and huHF_mutant2-dual to hTfR.

T1 sequence (P02786 89-760 limits assumed): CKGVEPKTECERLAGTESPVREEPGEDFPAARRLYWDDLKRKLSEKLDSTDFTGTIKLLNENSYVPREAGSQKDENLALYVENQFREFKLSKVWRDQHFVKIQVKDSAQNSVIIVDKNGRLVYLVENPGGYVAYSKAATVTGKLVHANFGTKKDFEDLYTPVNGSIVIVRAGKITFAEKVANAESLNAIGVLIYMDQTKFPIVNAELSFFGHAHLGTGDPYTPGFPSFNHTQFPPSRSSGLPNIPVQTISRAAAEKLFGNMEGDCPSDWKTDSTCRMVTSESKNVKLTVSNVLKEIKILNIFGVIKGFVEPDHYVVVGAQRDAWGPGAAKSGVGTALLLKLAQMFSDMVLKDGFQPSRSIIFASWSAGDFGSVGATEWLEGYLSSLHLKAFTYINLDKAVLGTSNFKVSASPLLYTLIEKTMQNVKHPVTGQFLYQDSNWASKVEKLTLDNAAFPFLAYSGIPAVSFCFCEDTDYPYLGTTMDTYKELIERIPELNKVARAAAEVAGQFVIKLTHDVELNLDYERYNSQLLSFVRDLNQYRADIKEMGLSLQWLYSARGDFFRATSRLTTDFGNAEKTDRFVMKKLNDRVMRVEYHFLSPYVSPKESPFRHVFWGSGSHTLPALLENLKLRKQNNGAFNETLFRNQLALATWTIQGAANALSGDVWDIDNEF

B1: huHF_Mutant2-dual (designed binder)
chain: MTTASTSQVRQNYHAASEAAINAQINLELYASYVYLSMSYYFDRDDVALKNFAKYFLHQSHEEREHAEKLMKLQNQRGGRIALADIQKPDCDGGSYGSLYAFDIDWESGLNAMECALHLEKNVNQSLLALHALATAKNDPHLCDFIETHYLNEQVKAIKELGDHVTNLRKMGAPESGLAEYLFDKHTLGDSDNESMPSFITLASLSTWEGYFDF
notes: It self-assembles into a 24-mer nanoparticle
  Kd: ~4.4 µM
